Reference: the supplement of paper PMC9170038

Test system: MS2 coat protein
Experiment: apparent KD of MS2 coat protein; designed switch direction (-1 OFF switch, 1 ON switch): -1; higher = weaker reporter binding
Outline: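 Designed RNA switches with common flanks were transcribed on Illumina chips by stalled E. coli RNA polymerase and titrated with SNAP-549-labelled MS2 coat protein, from 0.7 or 1.5 nM doubling to 3 µM, in Tris-HCl pH 7.5 buffer with KCl, MgCl2, BSA, DTT, tRNA and Tween-20. Steps lasted 0.8–1.5 h (lowest) to 10–20 min (highest). Titrations ran without input, with 200 uM small-molecule ligand, or with an oligonucleotide input. Normalised cluster fluorescence was curve-fitted, and apparent KD is the per-design median over clusters.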

[1] = input ligand: microRNA oligo, concentration not stated
[2] = Eterna round: R95, input ligand: FMN 200 uM
[3] = Eterna round: R95, input ligand: microRNA oligo, concentration not stated
[4] = Eterna round: R95, input ligand: none

Row | Sequence | apparent KD of MS2 coat protein (input ligand: FMN 200 uM) | apparent KD of MS2 coat protein [1] | apparent KD of MS2 coat protein (input ligand: none) | apparent KD of MS2 coat protein [2] | apparent KD of MS2 coat protein [3] | apparent KD of MS2 coat protein [4]
1 | UUAAUUAGCAGGCAAGAUCAUUACAUGAGGAUCACCCAUGUCGAGGAUAUCAGCUCGUGUAGAGCUGAGAAGGCGACAGCCUGC [ExNG3/13-A3] (Eterna round: R96, puzzle: Exclusion NG 3) | 0.666 µM | 0.207 µM | 0.334 µM | – | – | –
2 | AUUUAAUUUAAUAAGAUCACAUGAGGAUCACCCAUGUAUAUAUAGGAUAUCAGCUCGAAUAGAGCUGAGAAGGAUAUAUACUAU [ExNG3/7-B4] (Eterna round: R96, puzzle: Exclusion NG 3) | – | 0.276 µM | – | – | – | –
3 | CUGGUCCGAGGAUAUAUUUUGUGAAACAUGAGGAUCACCCAUGUAAUAAAAUGGAAAUAAAUAGAAGGCGGACUAG [Mat - Exclusion 5 - JL mod - D42] (puzzle: Exclusion 5) | – | – | – | 0.0252 µM | 0.0208 µM | 0.0242 µM
4 | ACAUGUUAUGUAGGAUAUUUUACACAUGAGGAUCACCCAUGUAACCGGAGGCUUUACUAUGAGUAAGAGAAGGGUAUGAACAUG [Ex NG2 #64] (Eterna round: R96, puzzle: Exclusion NG 2) | 0.0925 µM | 0.0422 µM | 0.0837 µM | – | – | –
5 | AAGAGUGCAGGAUAUACUUGUUAGGACGGUUGGAUGAUUUGACAUGAGGAUCACCCAUGUAGAAGGGCAGAGAG [JR_Exclu2_Sub052] (puzzle: Exclusion 2) | – | – | – | – | 0.126 µM | –
6 | AACAUACAUGAGGAUCACCCAUGUGAGGAUAUGAGAGUCAACUCGAGAGAGUUGAUUCUCAGAAGGCACAUAAA [JR_Ex1_Sub065] (Eterna round: R97, puzzle: Exclusion 1) | 0.226 µM | – | 0.0675 µM | – | – | –
7 | CAGUACUGAGGAUAUACAUGAGGAUCACCCAUGUGCACCAGCUAGGAAACUAGCAAAAGUAGAAGGCAGUACUG [828 mod 2 m9] (Eterna round: R97, puzzle: Exclusion 3) | 0.112 µM | – | 0.0155 µM | – | – | –
8 | AAAAGGUAAGGAUAUACAUGCCCAAAACACGUCCUCAGUCCACAUGAGGAUCACCCAUGUAGAAGGUACGAAAA [Ribiesdi] (Eterna round: R97, puzzle: Exclusion 2) | 0.285 µM | – | 0.0932 µM | – | – | –
9 | AGGAUGUUAGGAUAUCGGAGAUGCGGGAGGAGGUGGAGGUACGAGAAGGAACAUGAGGAUCACCCAUGUGGAAG [JR_Exclu4_Sub045] (puzzle: Exclusion 4) | – | – | – | – | 0.0184 µM | –
10 | AUAAUGUAAGGAUAUCAGUCGACUAGCUUCGGCUAGUCGACUGAGAAGGUACAUGAGGAUCACCCAUGUAGAUC [E4/19-A1] (Eterna round: R97, puzzle: Exclusion 4) | 0.363 µM | – | 0.066 µM | – | – | –
11 | AACUCACAUGAGGAUCACCCAUGUGAGGAUAUGGAUUCGCUGGCCGUAGCCAGUGGAUCCAGAAGGCGCGUGAU [JL-ex1-4.26] (Eterna round: R97, puzzle: Exclusion 1) | 0.0567 µM | – | 0.0569 µM | – | – | –
12 | AGUAGUUCAGGAUAUGAUGUUAAGUACAUGAGGAUCACCCAUGUAGGUCCUGGAUUUACAUCAGAAGGGAAUAACU [JR_Ex5_Sub083] (Eterna round: R97, puzzle: Exclusion 5) | 0.0604 µM | – | 0.0236 µM | – | – | –
13 | GUCGAUGUCAAAGGAUAUCAGCACGUGUAGUGCUGAGAAGGUUGAACAUGAGGAUCACCCAUGUAGAUCAUUAACGACUUAAUU [ENG1/10-A3] (Eterna round: R96, puzzle: Exclusion NG 1) | 0.0561 µM | 0.0203 µM | 0.0229 µM | – | – | –
14 | CUUUUGUGAGGAUAUUAGUAGUAAAUAAAUAAAAUUACUACUGAGAAGGCACAUGAGGAUCACCCAUGUUUCUC [salish99_ex4_r3_065] (Eterna round: R96, puzzle: Exclusion 4) | 0.278 µM | 0.0312 µM | 0.0355 µM | – | – | –
15 | GAAAAGGUAGGAUAUACGAUAAGAAAGGGUAGAGAAGAAACACAUGAGGAUCACCCAUGUAGAAGGACCAAAAG [salish99_ex2_r3_100] (puzzle: Exclusion 2) | – | – | – | 0.146 µM | 0.0236 µM | 0.0332 µM
16 | AAUUAAUAUCAGGAUAUGACGUGCUUCGGCACGUCAGAAGGGAUGACAUGAGGAUCACCCAUGUGAUCAAUUAA [E6/1-A1] (Eterna round: R97, puzzle: Exclusion 6) | 0.105 µM | – | 0.0286 µM | – | – | –
17 | AAAAGGCAGGGAGGAUAUGCUUACCUGGGUCGUCUUCGAACAUGAGGAUCACCCAUGUAGUCGACGCAGAAGGCCCUCAAAGCC [Mat - Exclusion NG 2 - Mod of JL - D59] (Eterna round: R96, puzzle: Exclusion NG 2) | 0.0427 µM | 0.0256 µM | 0.0217 µM | – | – | –

Row | Sequence | apparent KD of MS2 coat protein (input ligand: FMN 200 uM) | apparent KD of MS2 coat protein [1] | apparent KD of MS2 coat protein (input ligand: none) | apparent KD of MS2 coat protein [2] | apparent KD of MS2 coat protein [3] | apparent KD of MS2 coat protein [4]
18 | AACCCUCGUCAAGGAUAUACAUAGAAAAGCUUGGUAGAAGGUGACAUGAGGAUCACCCAUGUAUAAAGUUCGUCCAAUCGAACC [Diesisra] (Eterna round: R96, puzzle: Exclusion NG 1) | 0.139 µM | 0.0809 µM | 0.11 µM | – | – | –
19 | AGUCCUAACACGAAAGUGUUAGUACAAUAAGCUUGUGAAACAUGAGGAUCACCCAUGUCCUCAUAAGCUCGUCUUAU [salish99_TOv2_r3_015] (Eterna round: R96, puzzle: Sensor v3, turn-off variant 2) | 0.0153 µM | 0.449 µM | 0.0177 µM | – | – | –
20 | AACUCAUGUUCAGGAUAUCGCGUUCCAAAGACAUGAGAAGGGAACAUGAGGAUCACCCAUGUACCCGGUCUCAGACCGGGCUUC [Tiriaron] (Eterna round: R96, puzzle: Exclusion NG 1) | 0.115 µM | 0.0418 µM | 0.0641 µM | – | – | –
21 | AAGGGUGCUUUCAGAACGACAUGAGGAUCACCCAUGUAGACUGAGGAUAUCUACUUCUAAGGACGGGAGAAGGUAGUGUAAUGC [Ex NG3 #67] (Eterna round: R96, puzzle: Exclusion NG 3) | 0.0197 µM | 0.0159 µM | 0.0215 µM | – | – | –
22 | GUCAGGUAUCGAGGAUAUGUGAAAGGAAGUGUAGCAGAAGGCGAGGGCUUGACAUGAGGAUCACCCAUGUGAAGUGAUUCGAAG [17th something] (Eterna round: R96, puzzle: Exclusion NG 1) | 0.0764 µM | 0.041 µM | 0.0642 µM | – | – | –
23 | AAAAGUGAAGAGGAUAUCUGCGCCGAACGGUAAAGAGAAGGCUUCACAUGAGGAUCACCCAUGUGGGCCACAGA [EX6 C.5] (Eterna round: R97, puzzle: Exclusion 6) | 0.0793 µM | – | 0.0198 µM | – | – | –
24 | GCUUAGGAAGGAUAUACAUGAGGAUCACCCAUGUUGACGCGGUAGGGCCCGGUAGCACGUAGAAGGUCUAUAGC [Eternabot (L2) Solution 46] (Eterna round: R97, puzzle: Exclusion 3) | 0.0285 µM | – | 0.0194 µM | – | – | –
25 | CAGAAUUGAGGAUAUGAUCAAUUUAACAUGAGGAUCACCCAUGUAUGGGAAUGAUUCUGAUCAGAAGGCGAUUCUA [Exclusion 5: 1:b] (puzzle: Exclusion 5) | – | – | – | 0.289 µM | 0.408 µM | 0.079 µM
26 | AGUGUGAGGCAGGAUAUGCAAUAUGUAAGUAAUGCAGAAGGGUCUACAUGAGGAUCACCCAUGUGUGCGGUUGA [Ex6 #10] (Eterna round: R97, puzzle: Exclusion 6) | 0.282 µM | – | 0.192 µM | – | – | –
27 | UUAAUUAGCAGGCAAGAUCAUUACAUGAGGAUCACCCAUGUCGAGGAUAUCAGCUCGUUUAGAGCUGAGAAGGCGACAGCCUGC [ExNG3/13-A2] (Eterna round: R96, puzzle: Exclusion NG 3) | 0.711 µM | 0.289 µM | 0.417 µM | – | – | –
28 | CUAAGUUGGUAAGGAUAUCCUACAUUAUUCUGACCCGUGCAAGCUACAUGAGGAUCACCCAUGUGGGAGAAGGUGCGUUAAAGU [Design 4] (Eterna round: R96, puzzle: Exclusion NG 2) | 0.0237 µM | 0.0213 µM | 0.024 µM | – | – | –
29 | CGAGUACAUGAGGAUCACCCAUGUUAGGAUAUUGGUAUCAAAAGAGUCCGAUCUGAUCCAAGAAGGAGCAUGCC [Eternabot (L2) Solution 78] (Eterna round: R97, puzzle: Exclusion 1) | 0.0325 µM | – | 0.0271 µM | – | – | –
30 | UUCCUCGUUGUGAGGAUAUCGUCCUCUUUUUGUUACGAGAAGGCACAUGAGGAUCACCCAUGUUUCUUGAUGUU [JR_BMOE4_Sub070] (puzzle: Brourd's mod of Exclusion 4) | – | – | – | – | 0.0167 µM | –
31 | AAGGGUAGGCAGGAUAUCCAGGUCGACACCGCGGGAGAAGGGCUUACAUGAGGAUCACCCAUGUAGGGUGCGAG [EX6 A.2] (Eterna round: R97, puzzle: Exclusion 6) | 0.253 µM | – | 0.133 µM | – | – | –
32 | ACAUGUCAUCGAGGAUAUUGGACACAUGAGGAUCACCCAUGUACUCGGAUGCUCUACCAUGAGUUCGAGAAGGCGAUGUACAUU [Ex NG2 #78] (Eterna round: R96, puzzle: Exclusion NG 2) | 0.0319 µM | 0.0943 µM | 0.181 µM | – | – | –
33 | AAAUUAAUGGUAAGGAUAUGAUGCAGGAAACUGCGUCAGAAGGUACAUGAGGAUCACCCAUGUUAAACUAAUUU [Explosion 9 - Jieux - Brourd's mod of Exclusion 4] (Eterna round: R97, puzzle: Brourd's mod of Exclusion 4) | 0.0182 µM | – | 0.0142 µM | – | – | –
